# Assay results reported in patent publication US8618251.
# Legend:
# [1] = molecular target: soluble hFcγRIIIA FV (human) (UniProt P08637); assay: SPR Biacore T100, steady state, antibody immobilised
# soluble hFcγRIIB (human) [2] = molecular target: soluble hFcγRIIB (human) (UniProt P31994); assay: as above
# C1q (Calbiochem) [3] = molecular target: C1q (Calbiochem) (UniProt P02745); assay: as above
# [4] = molecular target: soluble hFcγRIIA^131H (human) (UniProt P12318); assay: as above
# [5] = molecular target: soluble hFcγRIIA^131R (human) (UniProt P12318); assay: as above
# Chain of soluble hFcγRIIA^131R (human) (P12318 34-217 H167R): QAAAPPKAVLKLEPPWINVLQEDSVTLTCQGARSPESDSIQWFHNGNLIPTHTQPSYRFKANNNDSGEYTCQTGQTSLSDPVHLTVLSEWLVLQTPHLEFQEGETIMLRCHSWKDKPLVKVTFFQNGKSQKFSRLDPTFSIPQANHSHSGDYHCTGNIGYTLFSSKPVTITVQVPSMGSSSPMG
# [6] = molecular target: soluble hFcγRIIIA FV (human) (UniProt P08637); assay: SPR Biacore T100; reference of the fold not given
# soluble hFcγRIIB (human) [7] = molecular target: soluble hFcγRIIB (human) (UniProt P31994); assay: SPR Biacore T100; reference of the fold not given
# C1q (Calbiochem) [8] = molecular target: C1q (Calbiochem) (UniProt P02745); assay: SPR Biacore T100; reference of the fold not given
# [9] = molecular target: soluble hFcγRIIA^131H (human) (UniProt P12318); assay: SPR Biacore T100; reference of the fold not given
# [10] = molecular target: soluble hFcγRIIA^131R (human) (UniProt P12318); assay: SPR Biacore T100; reference of the fold not given
# [11] = molecular target: soluble hFcγ-receptor RIa (human) (UniProt P12314); assay: SPR Biacore T100, steady state, antibody immobilised
# Chain of soluble hFcγ-receptor RIa (human) (P12314 16-288 limits assumed): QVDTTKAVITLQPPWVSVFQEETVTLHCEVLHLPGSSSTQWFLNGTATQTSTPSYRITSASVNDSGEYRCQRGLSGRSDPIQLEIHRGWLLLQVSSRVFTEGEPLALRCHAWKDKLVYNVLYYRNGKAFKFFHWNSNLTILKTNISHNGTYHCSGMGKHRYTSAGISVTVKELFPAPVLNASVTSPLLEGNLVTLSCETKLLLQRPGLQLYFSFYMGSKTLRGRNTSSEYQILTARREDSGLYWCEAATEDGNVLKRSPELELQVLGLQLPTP
# [12] = molecular target: soluble hFcγRIIIA FF (human) (UniProt P08637); assay: as above
# [13] = molecular target: soluble hFcγ-receptor RIa (human) (UniProt P12314); assay: SPR Biacore T100; reference of the fold not given
# [14] = molecular target: soluble hFcγRIIIA FF (human) (UniProt P08637); assay: SPR Biacore T100; reference of the fold not given
# [15] = molecular target: soluble hFcγRIIIA FV (human) (UniProt P08637); assay: SPR (Biacore T100), steady-state affinity; antibody immobilised on CM5 chip, soluble receptor injected; column head hRIIIA158F, whose values for IEAL, ALEV and LLLFET are those of the hRIIIA FV column of Table 1
# [16] = molecular target: soluble hFcγRIIA^131H (human) (UniProt P12318); assay: SPR (Biacore T100), steady-state affinity; antibody immobilised on CM5 chip, soluble receptor injected
# [17] = molecular target: soluble hFcγRIIA^131R (human) (UniProt P12318); assay: as above
# C1q (Calbiochem) [18] = molecular target: C1q (Calbiochem) (UniProt P02745); assay: SPR (Biacore T100), steady-state affinity; antibody immobilised on CM5 chip, C1q injected
# Chain of soluble hFcγRIIA^131H (human) (P12318 34-217): as the sequence (P12318 34-217 H167R) above, with R134H counted along it
# Chain of soluble hFcγRIIB (human) (P31994 43-217 limits assumed): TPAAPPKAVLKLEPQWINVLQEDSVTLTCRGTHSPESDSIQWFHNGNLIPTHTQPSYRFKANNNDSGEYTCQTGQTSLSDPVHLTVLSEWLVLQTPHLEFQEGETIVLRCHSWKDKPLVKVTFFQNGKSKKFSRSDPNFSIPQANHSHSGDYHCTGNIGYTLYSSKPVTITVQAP
# Chain of soluble hFcγRIIIA FV (human) (P08637 17-208 F176V): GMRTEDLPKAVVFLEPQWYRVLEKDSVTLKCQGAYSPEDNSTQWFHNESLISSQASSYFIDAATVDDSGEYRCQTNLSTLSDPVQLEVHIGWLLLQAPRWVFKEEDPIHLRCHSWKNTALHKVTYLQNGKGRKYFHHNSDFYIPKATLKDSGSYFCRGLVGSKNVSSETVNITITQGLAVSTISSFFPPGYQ
# Chain of C1q (Calbiochem) (P02745 23-245 limits assumed, chain 1 of 3): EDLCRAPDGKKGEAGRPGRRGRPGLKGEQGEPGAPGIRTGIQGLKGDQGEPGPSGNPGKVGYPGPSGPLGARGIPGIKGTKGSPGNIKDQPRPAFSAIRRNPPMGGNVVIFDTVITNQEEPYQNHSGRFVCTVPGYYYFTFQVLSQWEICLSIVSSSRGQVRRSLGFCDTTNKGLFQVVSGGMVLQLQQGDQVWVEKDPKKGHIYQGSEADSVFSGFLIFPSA
# Chain of C1q (Calbiochem) (P02746 28-253 limits assumed, chain 2 of 3, further chain): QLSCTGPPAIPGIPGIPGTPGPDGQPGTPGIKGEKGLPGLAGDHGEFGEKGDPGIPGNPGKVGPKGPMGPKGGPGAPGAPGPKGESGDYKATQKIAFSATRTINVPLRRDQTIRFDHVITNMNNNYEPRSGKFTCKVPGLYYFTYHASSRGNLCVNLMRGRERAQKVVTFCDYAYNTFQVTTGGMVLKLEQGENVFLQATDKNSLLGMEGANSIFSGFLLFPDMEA
# Chain of C1q (Calbiochem) (P02747 29-245 limits assumed, chain 3 of 3, further chain): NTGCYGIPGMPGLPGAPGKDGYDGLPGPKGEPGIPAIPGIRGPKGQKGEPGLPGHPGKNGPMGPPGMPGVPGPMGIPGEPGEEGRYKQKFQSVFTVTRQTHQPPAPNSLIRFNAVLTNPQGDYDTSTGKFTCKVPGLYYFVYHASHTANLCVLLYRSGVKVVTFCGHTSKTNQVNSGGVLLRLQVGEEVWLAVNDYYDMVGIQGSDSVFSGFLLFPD
Substance,Kd [1],Kd (soluble hFcγRIIB (human) [2]),Kd (C1q (Calbiochem) [3]),Kd [4],Kd [5],Fold change in affinity [6],Fold change in affinity (soluble hFcγRIIB (human) [7]),Fold change in affinity (C1q (Calbiochem) [8]),Fold change in affinity [9],Fold change in affinity [10],Kd [11],Kd [12],Fold change in affinity [13],Fold change in affinity [14],Kd [15],Kd [16],Kd [17],Kd (C1q (Calbiochem) [18])
4-4-20 hIgG1 Fc mutant T394P (antibody),,10800 nM,,5940 nM,8700 nM,,1.1 fold,,0.5 fold,1 fold,,,,,,,,
4-4-20 hIgG1 Fc mutant F243I (antibody),7050 nM,11800 nM,95.5 nM,5600 nM,7720 nM,0.4 fold,0.9 fold,,0.6 fold,0.9 fold,,9930 nM,,1.4 fold,,,,
4-4-20 hIgG1 Fc mutant K205E-V211A-G237V-F243L-V273I-T366S-M428L (antibody),8990 nM,13400 nM,292 nM,10000 nM,851 nM,0.4 fold,1.8 fold,,0.4 fold,5.6 fold,43.6 nM,11600 nM,0.4 fold,1.2 fold,,,,
4-4-20 hIgG1 Fc mutant I332T (antibody),2610 nM,8540 nM,35.5 nM,903 nM,,,,,,,,10600 nM,,,,,,
4-4-20 hIgG1 Fc mutant G236A-F243I-I332T (antibody),7040 nM,16700 nM,25.7 nM,482 nM,944 nM,0.5 fold,1.5 fold,0.8 fold,8.9 fold,5 fold,42.3 nM,11200 nM,0.4 fold,1.2 fold,,,,
4-4-20 hIgG1 Fc mutant P396L (antibody),,6040 nM,,766 nM,4880 nM,,,,4 fold,1.8 fold,,,,,,,,
4-4-20 hIgG1 Fc mutant S298G-T299A (antibody),,5680 nM,,7000 nM,1690 nM,,1.7 fold,,0.8 fold,3 fold,,,,,,,,
4-4-20 hIgG1 Fc mutant S239D (antibody),307 nM,,248 nM,1460 nM,1480 nM,5.3 fold,4.3 fold,0.6 fold,2.3 fold,4.9 fold,,1690 nM,,7.4 fold,,,,
4-4-20 hIgG1 with unmodified human IgG1 Fc (antibody),,,,,,,,,,,,,,,3500 nM,4300 nM,4800 nM,290 nM
4-4-20 hIgG1 Fc mutant S298G (antibody),,,,12900 nM,10600 nM,,,,0.3 fold,0.6 fold,,,,,,,,

# Further substances by falling Kd [5], results first:
Kd [1],Kd (soluble hFcγRIIB (human) [2]),Kd (C1q (Calbiochem) [3]),Kd [4],Kd [5],Fold change in affinity [6],Fold change in affinity (soluble hFcγRIIB (human) [7]),Fold change in affinity (C1q (Calbiochem) [8]),Fold change in affinity [9],Fold change in affinity [10],Kd [11],Kd [12],Fold change in affinity [13],Fold change in affinity [14],Kd [15],Kd [16],Kd [17],Kd (C1q (Calbiochem) [18]),Substance
567 nM,,63.3 nM,1340 nM,838 nM,2.9 fold,3.5 fold,2.2 fold,2.5 fold,8.7 fold,,7250 nM,,,,,,,4-4-20 hIgG1 Fc mutant K326E (antibody)
3430 nM,6120 nM,,7160 nM,778 nM,,4 fold,,0.6 fold,6.1 fold,,,,,,,,,4-4-20 hIgG1 Fc mutant V211A-F243L-K326E-D399V (antibody)
528 nM,2630 nM,129 nM,3180 nM,548 nM,6.7 fold,9.3 fold,3.8 fold,1.4 fold,8.7 fold,,,,,,,,,4-4-20 hIgG1 Fc mutant K326E-A339T (antibody)
3070 nM,785 nM,,,523 nM,,,,,,,,,,,,,,4-4-20 hIgG1 Fc mutant P247L-M252L-V266L-Y278F-V302E-S354T (antibody)
6760 nM,9800 nM,703 nM,467 nM,498 nM,0.6 fold,2.5 fold,0.4 fold,9.2 fold,9.6 fold,36.1 nM,11900 nM,0.7 fold,1.1 fold,,,,,4-4-20 hIgG1 Fc mutant G236A-K246E-F372Y-T394A-Q419L (antibody)
9320 nM,14000 nM,392 nM,1060 nM,479 nM,0.5 fold,1.7 fold,,4.1 fold,9.9 fold,66.6 nM,15800 nM,0.4 fold,0.8 fold,,,,,4-4-20 hIgG1 Fc mutant L163P-S183G-K222E-G236A-N276D-S298G-D312G (antibody)
5570 nM,8090 nM,559 nM,513 nM,473 nM,0.3 fold,,0.5 fold,8.4 fold,10.1 fold,11.8 nM,11000 nM,1.1 fold,1.2 fold,,,,,4-4-20 hIgG1 Fc mutant P171S-S191C-G236A-K274M-T394P (antibody)
5500 nM,10500 nM,405 nM,,394 nM,,,,,,17.4 nM,14000 nM,,,,,,,4-4-20 hIgG1 Fc mutant V188E-G236A-P244H-H268Y (antibody)
489 nM,3210 nM,137 nM,4790 nM,372 nM,7.2 fold,7.6 fold,2.1 fold,0.9 fold,12.8 fold,,6900 nM,,2.2 fold,,,,,4-4-20 hIgG1 Fc mutant V215I-K326E-T359A-P396L (antibody)
,5340 nM,,463 nM,312 nM,,,,7.4 fold,18.5 fold,,,,,,,,,4-4-20 hIgG1 Fc mutant G236A-F243I-S298G-T299A-I332T (antibody)
